Measured values taken from article PMC3989777 (Cell Reports, 2014).
Where a SMILES comes first, the peptide text is derived from it. Where no end group is shown, it is not given here. [ ]: non-standard residue; d: D form. pS = N[C@@H](COP(=O)(O)O)C(=O)O

Assays:
[1] = molecular target: PIH1D1 (1-180) (Homo sapiens, UniProt Q9NWS0); test: ITC of phosphopeptide binding to PIH1D1 1-180
[2] = molecular target: PIH1D1 1–180 (human, UniProt Q9NWS0 1-180); test: ITC
Chain of PIH1D1 1–180 (Q9NWS0 1-180): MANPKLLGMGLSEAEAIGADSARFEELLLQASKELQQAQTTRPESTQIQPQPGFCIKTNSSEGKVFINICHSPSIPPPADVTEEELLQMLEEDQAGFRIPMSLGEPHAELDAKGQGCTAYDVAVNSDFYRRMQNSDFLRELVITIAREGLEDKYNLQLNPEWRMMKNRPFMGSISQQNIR

Chain of PIH1D1 (1-180) (Q9NWS0 1-180): as above

Molecule | higher affinity relative to the TEL2 peptide phosphorylated on Ser491 [1] | Kd [2] [µM]
CC(C)C[C@H](NC(=O)[C@H](CC(=O)O)NC(=O)[C@H](COP(=O)(O)O)NC(=O)[C@H](CC(=O)O)NC(=O)[C@H](CO)NC(=O)CNC(=O)[C@H](C)NC(=O)[C@@H](N)Cc1ccc(O)cc1)C(=O)N[C@@H](CC(=O)O)C(=O)N[C@@H](COP(=O)(O)O)C(=O)N[C@@H](CC(=O)O)C(=O)N[C@@H](CC(=O)O)C(=O)N[C@@H](CCC(=O)O)C(=O)N[C@@H](Cc1ccccc1)C(=O)N[C@H](C(=O)N1CCC[C@H]1C(=O)N[C@@H](Cc1ccc(O)cc1)C(N)=O)C(C)C (H-YAGSD[pS]DLD[pS]DDEFVPY-NH2) | 2- to 3 fold | –
YAGSDSDLD[pS]DDEFVPY (also: phosphoserine at Ser491, place not mappable) [TEL2 peptide phosphorylated on Ser491] | – | 3.5
RPNESD[pS]DDLDDY [ECD peptide RPNESDpS505DDLDDY] | – | 16
